Where two headings read alike, the source gives them in different places. Where no end group is shown, it is not given here.
How the values were obtained:
[1] = test system: calcitonin oligomer; conditions: cited from earlier work
[2] = 4 °C, 100 mM DCl (pH 1); cited from earlier work
[3] = cited from earlier work
[4] = Pyrene fluorescence II/IIII ratio assay for micelle-like oligomer formation; format: physicochemical; conditions: pH 7.3, 20 mM phosphate buffer, 50 mM NaCl, 1 μM pyrene, 25 °C

In the case of `O=C(O[C@@H]1Cc2c(O)cc(O)cc2O[C@@H]1c1cc(O)c(O)c(O)c1)c1cc(O)c(O)c(O)c1` [EGCG], the “effect on formation of the calcitonin oligomer” value [1] is given as “completely abolish”.

In the case of “Aβ1–40: amyloid-beta peptide 1–40, linked to Alzheimer's disease”, the “length of spherocylindrical micelle structures (SANS)” value [2] is listed as 11 nm, the “radius of spherocylindrical micelle structures (SANS)” value [2] is listed as 2.4 nm and the critical concentration ([3]; 10 mM phosphate buffer, pH 7.3) is listed as 8 µM. The critical concentration ([3]; 0.1 M Tris, pH 7.4 20 °C) was 25 µM and the “critical concentration for micelle-like oligomers” value ([3]; pyrene and surface tension studies) was 17 µM.

In the case of “hIAPP1–19: N-terminal 1–19 fragment of hIAPP, significantly less amyloidogenic than the full-length peptide (KCNTATCATQRLANFLVHS; ends and bridges not checked; cysteine pairing not given here; UniProt P10997 34-52, looked up, fragment)”, the “micelle-like oligomer formation over the concentration range tested (pyrene II/IIII)” value [4] is reported as “did not form oligomers”.

From PMC11444341 (The journal of physical chemistry. B, 2015)
